Earlier results, collected in article PMC4480918.

Legend:
Experiment in all cases: NMR
[1] = molecular target: His80 (UniProt position 121, KELYGHTLVWH); details: free enzyme (not the 2FCb glycosyl-enzyme intermediate)
[2] = tested on: His92; details: redox state not stated
[3] = tested on: His61; details: redox state not stated

Substance	pKa [1]	pKa [2]	pKa [3]
Catalytic domain of beta-(1,4)-glycosidase Cex (CexCD) (Cellulomonas fimi)	7.9		
Plastocyanin (A.v. Pc) (Anabaena variabilis)		5.1	7.1
